US20080113383A1 (FIBRO GEN, published 2008)
Where no end group is shown, it is not given here.

These binders were tested against EGLN1 (assay: cell-based or functional assay).

Binder | Activity (%)* [%]
DTDLDLEALAPYIPADDDFQ [DTDLDLEALApYIPADDDFQ] | 102
DTDLDLEMLQPYIPMDDDFQ (not fully specified; printed as DTDLDLEMLQpYIPMDDDFQ) [DTDLDLEMLQpYIPMDDDFQ] | 45.1
DTDLDLEAGAPYIPADDDFQ [DTDLDLEAGApYIPADDDFQ] | 11.3
DTDLDLEAIAPYIPADDDFQ [DTDLDLEAIApYIPADDDFQ] | 88
DTDLDLEMLKPYIPMDDDFQ (not fully specified; printed as DTDLDLEMLKpYIPMDDDFQ) [DTDLDLEMLKpYIPMDDDFQ] | 68.7
DTDLDLEMLIPYIPMDDDFQ (not fully specified; printed as DTDLDLEMLIpYIPMDDDFQ) [DTDLDLEMLIpYIPMDDDFQ] | 15.6
DTDLDAEATAPYIPADDDFQ [DTDLDAEATApYIPADDDFQ] | 20.8
DTDLDLEAQAPYIPADDDFQ [DTDLDLEAQApYIPADDDFQ] | 23.4
DTDLDAEASAPYIPADDDFQ [DTDLDAEASApYIPADDDFQ] | 10.5
DTDLDIEAVAPYIPADDDFQ [DTDLDIEAVApYIPADDDFQ] | 23.9
DTDLDLEASAPYIPADDDFQ [DTDLDLEASApYIPADDDFQ] | 29.6
DTDLDLEAEAPYIPADDDFQ [DTDLDLEAEApYIPADDDFQ] | 9.97
DTDLDLEMLMPYIPMDDDFQ (not fully specified; printed as DTDLDLEMLMpYIPMDDDFQ) [DTDLDLEMLMpYIPMDDDFQ] | 26.4
DTDLDAEAIAPYIPADDDFQ [DTDLDAEAIApYIPADDDFQ] | 31.3
DTDLDIEANAPYIPADDDFQ [DTDLDIEANApYIPADDDFQ] | 33.2
DTDLDAEAAAPYIPADDDFQ [DTDLDAEAAApYIPADDDFQ] | 12.6
DTDLDHEALAPYIPADDDFQ [DTDLDHEALApYIPADDDFQ] | 23.4

Continued, values first:

Activity (%)* [%] | Binder
24.1 | DTDLDTEAYAPYIPADDDFQ (not fully specified; printed as DTDLDTEAYApYIPADDDFQ) [DTDLDTEAYApYIPADDDFQ]
22.2 | DTDLDTEAFAPYIPADDDFQ (not fully specified; printed as DTDLDTEAFApYIPADDDFQ) [DTDLDTEAFApYIPADDDFQ]
31.5 | DTDLDVEALAPYIPADDDFQ (not fully specified; printed as DTDLDVEALApYIPADDDFQ) [DTDLDVEALApYIPADDDFQ]
19.8 | DTDLDLEMLRPYIPMDDDFQ (not fully specified; printed as DTDLDLEMLRpYIPMDDDFQ) [DTDLDLEMLRpYIPMDDDFQ]
20.4 | DTDLDVEATAPYIPADDDFQ (not fully specified; printed as DTDLDVEATApYIPADDDFQ) [DTDLDVEATApYIPADDDFQ]
94.2 | DTDLDYEALAPYIPADDDFQ (not fully specified; printed as DTDLDYEALApYIPADDDFQ) [DTDLDYEALApYIPADDDFQ]
27.1 | DTDLDNEALAPYIPADDDFQ (not fully specified; printed as DTDLDNEALApYIPADDDFQ) [DTDLDNEALApYIPADDDFQ]
22.8 | DTDLDVEAVAPYIPADDDFQ (not fully specified; printed as DTDLDVEAVApYIPADDDFQ) [DTDLDVEAVApYIPADDDFQ]
21.9 | DTDLDTEATAPYIPADDDFQ (not fully specified; printed as DTDLDTEATApYIPADDDFQ) [DTDLDTEATApYIPADDDFQ]
19.9 | DTDLDREALAPYIPADDDFQ (not fully specified; printed as DTDLDREALApYIPADDDFQ) [DTDLDREALApYIPADDDFQ]
16.6 | DTDLDTEAVAPYIPADDDFQ (not fully specified; printed as DTDLDTEAVApYIPADDDFQ) [DTDLDTEAVApYIPADDDFQ]
23.7 | DTDLDTEAIAPYIPADDDFQ (not fully specified; printed as DTDLDTEAIApYIPADDDFQ) [DTDLDTEAIApYIPADDDFQ]

These binders were tested against EGLN2 (assay: cell-based or functional assay).

Binder | Activity (%)* [%]
DTDLDLEALAPYIPADDDFQ [DTDLDLEALApYIPADDDFQ] | 102
DTDLDLEMLQPYIPMDDDFQ (not fully specified; printed as DTDLDLEMLQpYIPMDDDFQ) [DTDLDLEMLQpYIPMDDDFQ] | 38.1
DTDLDLEAGAPYIPADDDFQ [DTDLDLEAGApYIPADDDFQ] | 9.84
DTDLDLEAIAPYIPADDDFQ [DTDLDLEAIApYIPADDDFQ] | 89
DTDLDLEMLKPYIPMDDDFQ (not fully specified; printed as DTDLDLEMLKpYIPMDDDFQ) [DTDLDLEMLKpYIPMDDDFQ] | 57.7
DTDLDLEMLIPYIPMDDDFQ (not fully specified; printed as DTDLDLEMLIpYIPMDDDFQ) [DTDLDLEMLIpYIPMDDDFQ] | 17.8
DTDLDAEATAPYIPADDDFQ [DTDLDAEATApYIPADDDFQ] | 19.4
DTDLDLEAQAPYIPADDDFQ [DTDLDLEAQApYIPADDDFQ] | 19.1
DTDLDAEASAPYIPADDDFQ [DTDLDAEASApYIPADDDFQ] | 8.82
DTDLDIEAVAPYIPADDDFQ [DTDLDIEAVApYIPADDDFQ] | 23.8
DTDLDLEASAPYIPADDDFQ [DTDLDLEASApYIPADDDFQ] | 31.6
DTDLDLEAEAPYIPADDDFQ [DTDLDLEAEApYIPADDDFQ] | 13.2
DTDLDLEMLMPYIPMDDDFQ (not fully specified; printed as DTDLDLEMLMpYIPMDDDFQ) [DTDLDLEMLMpYIPMDDDFQ] | 27.8
DTDLDAEAIAPYIPADDDFQ [DTDLDAEAIApYIPADDDFQ] | 24
DTDLDIEANAPYIPADDDFQ [DTDLDIEANApYIPADDDFQ] | 34.4
DTDLDAEAAAPYIPADDDFQ [DTDLDAEAAApYIPADDDFQ] | 8.63
DTDLDHEALAPYIPADDDFQ [DTDLDHEALApYIPADDDFQ] | 21.5

Now from value to binder:

Activity (%)* [%] | Binder
25.6 | DTDLDTEAYAPYIPADDDFQ (not fully specified; printed as DTDLDTEAYApYIPADDDFQ) [DTDLDTEAYApYIPADDDFQ]
28.5 | DTDLDTEAFAPYIPADDDFQ (not fully specified; printed as DTDLDTEAFApYIPADDDFQ) [DTDLDTEAFApYIPADDDFQ]
29 | DTDLDVEALAPYIPADDDFQ (not fully specified; printed as DTDLDVEALApYIPADDDFQ) [DTDLDVEALApYIPADDDFQ]
14.3 | DTDLDLEMLRPYIPMDDDFQ (not fully specified; printed as DTDLDLEMLRpYIPMDDDFQ) [DTDLDLEMLRpYIPMDDDFQ]
13.6 | DTDLDVEATAPYIPADDDFQ (not fully specified; printed as DTDLDVEATApYIPADDDFQ) [DTDLDVEATApYIPADDDFQ]
108 | DTDLDYEALAPYIPADDDFQ (not fully specified; printed as DTDLDYEALApYIPADDDFQ) [DTDLDYEALApYIPADDDFQ]
21.4 | DTDLDNEALAPYIPADDDFQ (not fully specified; printed as DTDLDNEALApYIPADDDFQ) [DTDLDNEALApYIPADDDFQ]
16.6 | DTDLDVEAVAPYIPADDDFQ (not fully specified; printed as DTDLDVEAVApYIPADDDFQ) [DTDLDVEAVApYIPADDDFQ]
24.8 | DTDLDTEATAPYIPADDDFQ (not fully specified; printed as DTDLDTEATApYIPADDDFQ) [DTDLDTEATApYIPADDDFQ]
15.7 | DTDLDREALAPYIPADDDFQ (not fully specified; printed as DTDLDREALApYIPADDDFQ) [DTDLDREALApYIPADDDFQ]
19 | DTDLDTEAVAPYIPADDDFQ (not fully specified; printed as DTDLDTEAVApYIPADDDFQ) [DTDLDTEAVApYIPADDDFQ]
25.3 | DTDLDTEAIAPYIPADDDFQ (not fully specified; printed as DTDLDTEAIApYIPADDDFQ) [DTDLDTEAIApYIPADDDFQ]

Each binder was assayed against EGLN3 (assay: cell-based or functional assay).

Binder | Activity (%)* [%]
DTDLDLEALAPYIPADDDFQ [DTDLDLEALApYIPADDDFQ] | 119
DTDLDLEMLQPYIPMDDDFQ (not fully specified; printed as DTDLDLEMLQpYIPMDDDFQ) [DTDLDLEMLQpYIPMDDDFQ] | 59.9
DTDLDLEAGAPYIPADDDFQ [DTDLDLEAGApYIPADDDFQ] | 12.2
DTDLDLEAIAPYIPADDDFQ [DTDLDLEAIApYIPADDDFQ] | 104
DTDLDLEMLKPYIPMDDDFQ (not fully specified; printed as DTDLDLEMLKpYIPMDDDFQ) [DTDLDLEMLKpYIPMDDDFQ] | 74.5
DTDLDLEMLIPYIPMDDDFQ (not fully specified; printed as DTDLDLEMLIpYIPMDDDFQ) [DTDLDLEMLIpYIPMDDDFQ] | 101
DTDLDAEATAPYIPADDDFQ [DTDLDAEATApYIPADDDFQ] | 18.5
DTDLDLEAQAPYIPADDDFQ [DTDLDLEAQApYIPADDDFQ] | 39.4
DTDLDAEASAPYIPADDDFQ [DTDLDAEASApYIPADDDFQ] | 4.11
DTDLDIEAVAPYIPADDDFQ [DTDLDIEAVApYIPADDDFQ] | 61.3
DTDLDLEASAPYIPADDDFQ [DTDLDLEASApYIPADDDFQ] | 25.1
DTDLDLEAEAPYIPADDDFQ [DTDLDLEAEApYIPADDDFQ] | 16.9
DTDLDLEMLMPYIPMDDDFQ (not fully specified; printed as DTDLDLEMLMpYIPMDDDFQ) [DTDLDLEMLMpYIPMDDDFQ] | 58.9
DTDLDAEAIAPYIPADDDFQ [DTDLDAEAIApYIPADDDFQ] | 25.7
DTDLDIEANAPYIPADDDFQ [DTDLDIEANApYIPADDDFQ] | 30.4
DTDLDAEAAAPYIPADDDFQ [DTDLDAEAAApYIPADDDFQ] | 7.18
DTDLDHEALAPYIPADDDFQ [DTDLDHEALApYIPADDDFQ] | 55.8

The remaining lines, values ahead:

Activity (%)* [%] | Binder
36 | DTDLDTEAYAPYIPADDDFQ (not fully specified; printed as DTDLDTEAYApYIPADDDFQ) [DTDLDTEAYApYIPADDDFQ]
24.1 | DTDLDTEAFAPYIPADDDFQ (not fully specified; printed as DTDLDTEAFApYIPADDDFQ) [DTDLDTEAFApYIPADDDFQ]
115 | DTDLDVEALAPYIPADDDFQ (not fully specified; printed as DTDLDVEALApYIPADDDFQ) [DTDLDVEALApYIPADDDFQ]
77.6 | DTDLDLEMLRPYIPMDDDFQ (not fully specified; printed as DTDLDLEMLRpYIPMDDDFQ) [DTDLDLEMLRpYIPMDDDFQ]
24 | DTDLDVEATAPYIPADDDFQ (not fully specified; printed as DTDLDVEATApYIPADDDFQ) [DTDLDVEATApYIPADDDFQ]
136 | DTDLDYEALAPYIPADDDFQ (not fully specified; printed as DTDLDYEALApYIPADDDFQ) [DTDLDYEALApYIPADDDFQ]
57.6 | DTDLDNEALAPYIPADDDFQ (not fully specified; printed as DTDLDNEALApYIPADDDFQ) [DTDLDNEALApYIPADDDFQ]
49 | DTDLDVEAVAPYIPADDDFQ (not fully specified; printed as DTDLDVEAVApYIPADDDFQ) [DTDLDVEAVApYIPADDDFQ]
16.5 | DTDLDTEATAPYIPADDDFQ (not fully specified; printed as DTDLDTEATApYIPADDDFQ) [DTDLDTEATApYIPADDDFQ]
49.8 | DTDLDREALAPYIPADDDFQ (not fully specified; printed as DTDLDREALApYIPADDDFQ) [DTDLDREALApYIPADDDFQ]
26.8 | DTDLDTEAVAPYIPADDDFQ (not fully specified; printed as DTDLDTEAVApYIPADDDFQ) [DTDLDTEAVApYIPADDDFQ]
19 | DTDLDTEAIAPYIPADDDFQ (not fully specified; printed as DTDLDTEAIApYIPADDDFQ) [DTDLDTEAIApYIPADDDFQ]
